Experimental findings from patent publication US20230025360A1, “PROCESSES FOR GENERATING SUPERIOR ANTI-TUMOR T-CELL EFFECTOR AND MEMORY CELLS” (MUSC Foundation for Research Development, priority 2016, published 2023) are described below.

Series [1] concerns Splenic T cells. Briefly: Splenic T cells activated with anti-CD3/28 in presence of α-KG. The series is classed as cell-based, C57BL/6 mouse. The conditions noted are these: α-KG pretreatment for three days. On the procedure: Splenic T cells from C57BL/6 mouse were activated with anti-CD3/28 (each 2 μg/ml) either in absence or presence of α-KG for three days, after which: (FIG. 10A) Glucose uptake was determined using 2NBDG, and (FIG. 10B) Tscm phenotype was evaluated using CD62L and CD44 cell surface expression. N=2.

A further series concerns Pmel T cells. Briefly: Pmel T cells activated with cognate antigen in presence of rTrx. The series is classed as cell-based. On the procedure: (FIG. 7A) Three day activated gp100 epitope reactive splenic T cells from Pmel and Pmel−Trx mouse were re-stimulated overnight with cognate antigen, and supernatant was evaluated for secreted Trx by ELISA as per protocol. N=3 **p<0.005. (FIG. 7B) Pmel T cells were labeled with CFSE and stimulated with cognate antigen gp100 for three days. The expression of Trx was then determined using flurochrome conjugated antibody by gating on the cells in different phase of division. (FIG. 7C) CFSE labeled Pmel T cells were stimulated with cognate antigen in absence or presence of rTRx at various doses. Pmel T cells activated with cognate antigen in presence of rTrx (5 μg/ml) were used at day 3 to determine the expression of Trx (FIG. 7D), iGSH (FIG. 7E), pAMPK (FIG. 7F), stemness genes using qPCR (FIG. 7G), Annexin V upregulation after 4 hr of TCR restimulation with cognate antigen hgp100 or non-cognate ova peptide (FIG. 7H), and Glucose uptake using 2NBDG (FIG. 7I). N=2-3. Numerical values=MFI. *p<0.05, **p<0.01. (FIG. 7J) Melanoma epitope gp100 reactive T cells obtained from Pmel TCR transgenic mouse were activated with cognate antigen either in presence or absence of recombinant thioredoxin (rTrx) for three days before being adoptively transferred to the immunocompetent C57BL/6 recipient mice with ten day subcutaneously established murine melanoma B16-F10. Tumor measurements from two different experiments where Pmel and Pmel+rTrx were transferred to 9 recipient mice was compiled for this presentation. ***p value<0.01 obtained at last time point of the tumor measurement before the experiment was terminated.
To get an insight into the mechanism that may be responsible for the ability of co-injected Pmel T cells to respond to tumor rechallenge (as in FIG. 6), it was determined if Pmel−Trx secreted Trx upon antigen restimulation. […] Further, to determine how secreted Trx would have modulated the Pmel T cells, recombinant Trx was used during antigen induced in vitro Pmel activation and compared the phenotype with untreated Pmel and Pmel−Trx T cells. […] It has also been shown recently that Trx1-mediated reduction of Cys130 and Cys174 is essential for AMPK function, and decreased Trx levels could lead to oxidation of Cys130 and Cys174 by inducing aggregation that prevents its activation and phosphorylation by AMPK kinases (Shao D et al., 2014, Cell Metab, 19(2):232-45).

In a further series the test system is murine melanoma B16-F10. Briefly: Adoptive transfer of T cells activated in presence of rTrx. The series is classed as in vivo, C57BL/6 mice. The conditions noted are these: gp100 reactive effector T cells generated in presence of rTrx. On the procedure:
(FIG. 7A) Three day activated gp100 epitope reactive splenic T cells from Pmel and Pmel−Trx mouse were re-stimulated overnight with cognate antigen, and supernatant was evaluated for secreted Trx by ELISA as per protocol. N=3 **p<0.005. (FIG. 7B) Pmel T cells were labeled with CFSE and stimulated with cognate antigen gp100 for three days. The expression of Trx was then determined using flurochrome conjugated antibody by gating on the cells in different phase of division. (FIG. 7C) CFSE labeled Pmel T cells were stimulated with cognate antigen in absence or presence of rTRx at various doses. Pmel T cells activated with cognate antigen in presence of rTrx (5 μg/ml) were used at day 3 to determine the expression of Trx (FIG. 7D), iGSH (FIG. 7E), pAMPK (FIG. 7F), stemness genes using qPCR (FIG. 7G), Annexin V upregulation after 4 hr of TCR restimulation with cognate antigen hgp100 or non-cognate ova peptide (FIG. 7H), and Glucose uptake using 2NBDG (FIG. 7I). N=2-3. Numerical values=MFI. *p<0.05, **p<0.01. […]
Further, it was determined if the strategy to activate and expand in presence of rTrx ex vivo would render tumor epitope reactive T cells with robust anti-tumor property.

In the next series the test system is NF-KB. The experiment in a line: NF-KB activity after addition of recombinant Trx. The series is classed as cell-based.
In series [2] the test system is Splenic T cells. The experiment in a line: Homeostatic proliferation of IL2 or IL2+IL4 activated T cells in Rag1−/− recipients. The series is classed as in vivo, C57BL/6 mice. The conditions noted are these: IL2+IL4 vs IL2, tracked at day 28. An excerpt:
Splenic T cells from C57BL/6 mice on Thy1.1 or Thy1.2 background were activated for three days either in 1L2 or IL2+IL4 respectively, and mixed in 1:1 ratio before injecting i.v. in Rag1−/− recipients to determine any differences in homeostatic proliferation. Transferred T cells were tracked at day 28 by staining Thy1.1 and Th1.2 cells in various lymphoid and non-lymphoid tissues.

Setting [3] is: TCR re-stimulation with cognate antigen (hgp100), cultured three days with recombinant Trx.

For the molecule `O=C(O)CCC(=O)C(=O)O` [α-ketoglutarate], the “T cell phenotype (CD62L and CD44 cell surface expression)” value in the series with Splenic T cells [1] was “renders Tscm phenotype”.

B1: rTrx: recombinant thioredoxin added during ex vivo T cell activation (protein, UniProt P10599 2-105, looked up)
Thioredoxin: VKQIESKTAFQEALDAAGDKLVVVDFSATWCGPCKMIKPFFHSLSEKYSNVIFLEVDVDDCQDVASECEVKCMPTFQFFKKGQKVGEFSGANKEKLEATINELV
For the molecule B1, the “toxicity / cell division during T cell activation” value in the series with Pmel T cells (CFSE labeled Pmel T cells, rTrx at various doses) is reported as “non-toxic”. For the same molecule, in the series on Pmel T cells (setting [3]), the “cell death as measured by Annexin V levels” value is recorded as “reduced cell death” and the “glucose uptake (2NBDG)” value is “reduced”. Also, the pAMPK entry in the series with Pmel T cells (compared to activated Pmel T cells) was “increased pAMPK”. Moreover, in the series on Pmel T cells (rTrx 5 μg/ml, day 3), the “Lef1 gene expression (qPCR, stemness genes)” value is given as “up-regulation”; the “Tcf7 gene expression (qPCR, stemness genes)” value is listed as “up-regulation”; the “expression of Trx” value is on record as “increased expression”; the “expression of iGSH” value is “increased expression”. For the same molecule, in the series with murine melanoma B16-F10, the “survival of transferred T cells in vivo” value is on record as “survive longer” and the tumor control entry is “much improved tumor control”. Also, in the series on NF-KB, the NF-KB activity result is reported as “decrease”.

B2: IL4: cytokine used with IL2 to pretreat T cells for three days (protein, UniProt P05112 25-153, looked up)
Interleukin-4: HKCDITLQEIIKTLNSLTEQKTLCTELTVTDIFAASKNTTEKETFCRAATVLRQFYSHHEKDTRCLGATAQQFHRHKQLIRFLKRLDRNLWGLAGLNSCPVKEANQSTLENFLERLKTIMREKYSKCSS
Regarding B2, in the series on Splenic T cells [2], the “persistence of pretreated T cells in vivo” value is reported as “improved persistence”.
